Assay [1] concerns the target BAM2 (Arabidopsis thaliana) (UniProt Q9M2Z1). As to conditions: cited from earlier work.
In assay [2] the target is BAM1 (Arabidopsis thaliana) (UniProt O49545). As to conditions: cited from earlier work.
For assay [3], the target named is BAM1-HaloTag (recombinant BAM1 in which the cytoplasmic kinase domain was replaced with HaloTag) (Arabidopsis) (UniProt O49545). As to the kind of experiment: cross-linking; photoaffinity labeling as a3, in the presence of 10 μM NPD12704.
For assay [4] the target is unchanged. The experiment in a line: cross-linking; photoaffinity labeling as a3, in the presence of 100 μM NPD12704.
The target in assay [5] is CLV1 (Arabidopsis thaliana) (UniProt Q9SYQ8). The settings on record: cited from earlier work.
In another assay the target is T1, BAM1 (Arabidopsis thaliana, UniProt O49545).
T1 construct: BAM1-HT: Met1 to Ile700 region (signal peptide, 22 LRRs, transmembrane domain), cytoplasmic kinase domain replaced with HaloTag; expressed in tobacco BY-2 cells, immobilized on HaloLink Sepharose beads
T1 sequence (O49545 1-700): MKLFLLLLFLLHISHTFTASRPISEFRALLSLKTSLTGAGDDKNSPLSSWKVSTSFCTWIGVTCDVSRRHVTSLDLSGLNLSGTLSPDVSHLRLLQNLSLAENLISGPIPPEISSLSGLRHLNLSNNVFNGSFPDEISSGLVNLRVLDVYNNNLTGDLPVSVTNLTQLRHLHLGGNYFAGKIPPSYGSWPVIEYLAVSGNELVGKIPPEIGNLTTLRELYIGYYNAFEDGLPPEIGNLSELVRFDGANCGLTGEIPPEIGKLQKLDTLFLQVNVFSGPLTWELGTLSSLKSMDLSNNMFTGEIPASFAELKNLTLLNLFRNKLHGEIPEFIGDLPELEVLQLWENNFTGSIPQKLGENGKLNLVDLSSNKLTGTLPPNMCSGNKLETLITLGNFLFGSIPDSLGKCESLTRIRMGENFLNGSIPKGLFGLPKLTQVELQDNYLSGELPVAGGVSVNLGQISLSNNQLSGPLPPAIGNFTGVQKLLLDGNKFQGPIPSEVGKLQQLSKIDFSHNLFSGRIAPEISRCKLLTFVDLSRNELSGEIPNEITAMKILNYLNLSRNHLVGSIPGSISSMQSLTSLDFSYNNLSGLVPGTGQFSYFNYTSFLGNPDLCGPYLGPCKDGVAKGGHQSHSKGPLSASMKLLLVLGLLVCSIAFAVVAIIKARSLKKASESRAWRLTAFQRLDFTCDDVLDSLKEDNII
The experiment in a line: competition binding of fluorescent Alexa488-CLE9 on bead-immobilized BAM1 (confocal imaging); confirmed by competitive photoaffinity labeling with […]ASA-CLE9 and […]ASA-[Ara3]CLV3.

Sequence of BAM2 (Arabidopsis thaliana) (Q9M2Z1 23-636): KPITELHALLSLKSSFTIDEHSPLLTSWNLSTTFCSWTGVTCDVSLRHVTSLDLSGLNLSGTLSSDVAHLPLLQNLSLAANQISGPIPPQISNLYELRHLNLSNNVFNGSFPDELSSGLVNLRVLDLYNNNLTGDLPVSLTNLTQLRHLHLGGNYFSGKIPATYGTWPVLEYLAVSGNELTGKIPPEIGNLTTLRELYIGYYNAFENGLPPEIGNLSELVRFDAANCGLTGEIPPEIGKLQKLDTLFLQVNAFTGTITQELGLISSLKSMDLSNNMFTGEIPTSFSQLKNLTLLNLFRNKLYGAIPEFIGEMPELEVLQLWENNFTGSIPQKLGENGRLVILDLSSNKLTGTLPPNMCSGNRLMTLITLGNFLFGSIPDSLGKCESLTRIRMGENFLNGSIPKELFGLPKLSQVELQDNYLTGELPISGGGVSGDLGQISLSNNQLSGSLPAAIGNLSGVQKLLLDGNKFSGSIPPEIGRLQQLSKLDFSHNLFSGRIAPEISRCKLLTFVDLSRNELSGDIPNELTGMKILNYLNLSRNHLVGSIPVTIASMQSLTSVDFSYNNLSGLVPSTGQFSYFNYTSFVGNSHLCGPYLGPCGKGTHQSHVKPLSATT
Sequence of CLV1 (Arabidopsis thaliana) (Q9SYQ8 25-638): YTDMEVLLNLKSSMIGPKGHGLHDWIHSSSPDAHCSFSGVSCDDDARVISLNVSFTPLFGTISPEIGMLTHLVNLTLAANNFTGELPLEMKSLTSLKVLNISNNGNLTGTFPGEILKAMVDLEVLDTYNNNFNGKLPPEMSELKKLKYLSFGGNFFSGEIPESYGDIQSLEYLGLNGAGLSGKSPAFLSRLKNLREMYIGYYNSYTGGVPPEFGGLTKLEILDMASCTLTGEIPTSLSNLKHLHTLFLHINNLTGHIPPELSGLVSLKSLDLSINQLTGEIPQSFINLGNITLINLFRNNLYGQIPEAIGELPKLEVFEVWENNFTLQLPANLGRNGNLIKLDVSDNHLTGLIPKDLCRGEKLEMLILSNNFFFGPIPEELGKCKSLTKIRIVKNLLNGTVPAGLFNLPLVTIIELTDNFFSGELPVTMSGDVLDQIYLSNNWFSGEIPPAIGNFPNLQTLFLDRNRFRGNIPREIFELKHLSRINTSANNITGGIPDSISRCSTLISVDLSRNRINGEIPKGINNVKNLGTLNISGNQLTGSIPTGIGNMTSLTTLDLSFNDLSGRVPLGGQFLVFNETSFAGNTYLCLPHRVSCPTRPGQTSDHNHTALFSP

Consider CLE9 (from UniProt Q9FZE4), for which the values for the Kd in assay [1] and in assay [2] were 11.9 nM and 1.8 nM, respectively. As to [^125I]ASA-CLE9 (peptide), the cross-linked band, percent of the control, with 10 μM NPD12704 (% of the control) in assay [3] was found to be 62. Besides, the cross-linked band, percent of the control, with 100 μM NPD12704 (% of the control) in assay [4] came out at 33. Consider [^125I]ASA-[Ara3]CLV3 glycopeptide, for which, in assay [3], the cross-linked band, percent of the control, with 10 μM NPD12704 (% of the control) came out at 46. Take [Ara3]CLV3 (from UniProt Q9XF04): the Kd in assay [5] is 1 nM. As for `CNC(=S)Nc1cc(OC)c(OC)cc1Cc1nccc2cc(OC)c(OC)cc12` [NPD12704], at BAM1, the half-maximal inhibitory concentration (IC50) was 26000 nM.

The Kd is the equilibrium constant for the complex coming apart. The IC50 is the concentration at which inhibition is half-maximal. Lower therefore signals higher potency.

(Values after paper PMC6377654, “Screening and identification of a non-peptide antagonist for the peptide hormone receptor in Arabidopsis” (Communications Biology, 2019).)
